Data reported in publication PMC5187420, “Structural insights into ribosomal rescue by Dom34 and Hbs1 at near-atomic resolution” (Nature Communications, 2016).

Biological target: T1, Hbs1 (S. cerevisiae, UniProt P32769 1-611)
T1 construct: Hbs1, S. cerevisiae, eEF1A-like GTPase; N-terminal domain is seen in the map, linker aa 78-140 disordered; source: E. coli BL21 (DE3), purified (Nickel-NTA, size-exclusion chromatography)
T1 sequence (looked up): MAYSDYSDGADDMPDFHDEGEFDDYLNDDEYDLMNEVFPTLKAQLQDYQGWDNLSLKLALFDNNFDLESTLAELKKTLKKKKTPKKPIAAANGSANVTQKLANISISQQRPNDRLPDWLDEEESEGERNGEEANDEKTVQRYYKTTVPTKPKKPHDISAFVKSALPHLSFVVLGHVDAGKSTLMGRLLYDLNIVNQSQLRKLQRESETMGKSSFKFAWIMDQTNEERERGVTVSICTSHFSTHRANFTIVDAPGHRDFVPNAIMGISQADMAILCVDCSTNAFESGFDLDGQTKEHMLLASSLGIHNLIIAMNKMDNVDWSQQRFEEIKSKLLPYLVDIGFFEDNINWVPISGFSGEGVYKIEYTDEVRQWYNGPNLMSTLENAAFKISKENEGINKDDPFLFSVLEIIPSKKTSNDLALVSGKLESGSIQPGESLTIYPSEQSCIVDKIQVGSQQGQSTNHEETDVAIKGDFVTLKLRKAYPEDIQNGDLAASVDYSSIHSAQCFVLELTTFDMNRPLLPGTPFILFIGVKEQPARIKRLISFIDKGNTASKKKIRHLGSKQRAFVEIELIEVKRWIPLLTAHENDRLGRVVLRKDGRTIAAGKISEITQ
Experiment: cryo-EM structure; Dom34 and Hbs1 (50 pmol each) pre-incubated with 1 mM GMPPNP in binding buffer (30 mM Hepes pH 7.5), 20 min at 30 °C, then combined with 10 pmol reassociated S. cerevisiae 80S ribosomes programmed with nonstop mRNA and AcPhe-tRNAPhe, 15 min at 30 °C; reconstruction at 3.3 Å
Details: both partners purified

B1: Dom34 (natural protein, S. cerevisiae)
chain: MKVISLKKDSFNKGGAVITLLPEDKEDLFTVYQIVDKDDELIFKKKFTSKLDEAGKKKSTDLVKLKIKVISEDFDMKDEYLKYKGVTVTDESGASNVDIPVGKYLSFTLDYVYPFTIIKQNFNKFMQKLLNEACNIEYKSDTAAVVLQEGIAHVCLVTSSSTILKQKIEYSMPKKKRTTDVLKFDEKTEKFYKAIYSAMKKDLNFDKLKTIILCSPGFYAKILMDKIFQYAEEEHNKKILDNKGMFFIAHCSTGYLQGINEVLKNPLYASKLQDTKYSKEIMVMDEFLLHLNKDDDKAWYGEKEVVKAAEYGAISYLLLTDKVLHSDNIAQREEYLKLMDSVESNGGKALVLSTLHSLGEELDQLTGIACILKYPLPDLDEDDGEE
notes: Dom34, S. cerevisiae; also called Pelota in mammals; source: E. coli BL21 (DE3), purified (Nickel-NTA, size-exclusion chromatography)
  binding result: binds
